# Measured values taken from the DeepSol protein solubility set.
# Test: soluble on expression in E. coli; label from the status in PepcDB or PDB records
row,Sequence,soluble on expression in E. coli
1,MSLSENLIIFNAKVVTPLGFSARKGKEMAELRILEKATVEVVDGIITYVGPNRGEVRDGYYHHFWHYNARGKCLLPGFVDSHTHFVFGGERAEEFSWRLKGESYMSIMQRGGGIASTVQATRELSFIHLRSKAEGLLKKMTAMGITTVEGKSGYGLNRETELLQLKVMRSLNKDEGVRVDIVPTFLGAHALPDEYKERPDDYIDFLIRELLPVIQRDSLAEFCDVFCEEGVFSIEQSRRLLTAAGDYGLLPKLHADEIVPLGGAELAAELGAVSADHLLHASDAGIEAMARKGVVATLLPLTAFALKEPYARGRDMIDAGCAVALATDLNPGSCFSGSIPLTFALACIHMQLTVEEAITALTLNGAAALNRADSIGSIEVGKKGDFVVLDSDNYHILPYYVGMNCVNTTIKGGMLYPSEGHHHHHH,soluble
2,MSLSETLLEKNWKFSKGDFPEAAQTDYNDTKWESVVIPHDWAIFGPFDMNNDLQNVAVTQNFEKKASLKTGRTGGLPYVGTGWYRTSFDVPADKEVTLLFDGAMSEARVYVNGQEACFWPFGYNSFHCNVTPFLNKDGKNNTLAVRLENRPQSSRWYPGAGLYRNVHLIVTEKVHIPVWGTQITTPHVSDEFAAVRLQTKIENAGEKTEIRIETEILSPDGKVVTRKENKGRINHGQPFEQNFIVNAPQLWSPESPALYKAVSKVYADNQLVDTYSTRFGIRSIEYIADKGFYLNGKHRKFQGVCNHHDLGPLGAAINVAALRHQLTLLKDMGCDAIRTSHNMPAPELVELCDEMGFMMMIEPFDEWDIAKCENGYHRYFNEWAERDMVNMLHNYRNNPCVVMWSIGNEVPTQCSPVGYKVAKFLQDICHREDPTRPVTCGMDQVTCVLANGFAAMIDIPGLNYRANRYQEAYDKLPQNLILGSETASTVSSRGVYKFPVKDKKSAQYDDHQCSSYDVEACSWSNIPDEDFALADDHHWTIGQFVWTGFDYLGEPSPYDTDAWPNHSSMFGIIDLASLPKDRYYLYRSIWNKEAETLHILPHWTWPGREGEVTPVFVYTNYPAAELFINGKSYGKQSKNNSSLKSRYRLMWMDAIYEPGEVKVVAYDKDGKAVAEKSVRTASKPHHIELVSNRNELTADGKDLAYVTVKVVDKDGNLCPADSRLINFSVKGAGKYRAGANGDPTSLDLFHLPKMHAFNGMLTAIVQTNETAGEIILTAKAGGVKAGSIRLLTKEGHHHHHH,soluble
3,MSLSFFAHFSPLSGHQKQAAHQILPHLFLGSAAAARSATWLQQNRITHIVCVHNAEVSPHELKRQLTISHPAGDTRATSHHHRQQTVAGQLVVHPDRCVYCCCYVQDTPQQVFLPVLFPVMDFIDNAIRDQSFRGGSPSGAPHGNVLVHCAKGISRSASLVICYLMFRRCWSYADSFTYIRRKRPIYPNVGFQASILTQLLETQELVENMFSQSEGHHHHHH,not soluble
4,MSLSFLKHVQDCNTHDLSNFVRFVIEGRRVGWVRKALAQRLKAHGRVFDVTRDAVLLSASLRTPQSRTRAVADVVDRLADEGVVPAPRGELYRVNQSWGEPTLMLLDRAVVPTFGVRAYGVHLNGYVGAGADLHLWIGRRSPDKSVAPGKLDNMVAGGQPADLSLRQNLIKECAEEADLPEALARQAIPVGAITYCMESPAGIKPDTLFLYDLALPEDFRPHNTDGEMADFMLWPAAKVVEAVRTTEAFKFNVNLTVIDFAIRHGLIDPDNEGHHHHHH,not soluble
5,MSLSGDDFSVPSKNSESTLFDSVEGDGAMMEEGVKSRPRQKKTQACLASKHVQEAPRLEPANEEHNVETAEDSEIRYLSADSGDADDSDADLGSAVKQLQEFIPNIKDRATSTIKRMYRDDLERFKEFKAQGVAIKFGKFSVKENKQLEKNVEDFLALTGIESADKLLYTDRYPEEKSVITNLKRRYSFRLHIGRNIARPWKLIYYRAKKMFDVNNYKGRYSEGDTEKLKMYHSLLGNDWKTIGEMVARSSLSVALKFSQISSQRNRGAWSKSETRKLIKAVEEVILKKMSPQELKEVDSKLQENPESCLSIVREKLYKGISWVEVEAKVQTRNWMQCKSKWTEILTKRMTNGRRIYYGMNALRAKVSLIERLYEINVEDTNEIDWEDLASAIGDVPPSYVQTKFSRLKAVYVPFWQKKTFPEIIDYLYETTLPLLKEKLEKMMEKKGTKIQTPAAPKQVFPFRDIFYYEDDSEGHHHHHH,not soluble
6,MSLSGKVGAPTLEVLRTAVSKRWSANSDLIDAIEHVSRQALLELAERAGQVDEVEDQLFRFSRILDVQPRLAILLGDCAVPAEGRVRLLRKVLERADSTVNPVVVALLSHTVELLRGQAVEEAVLFLAEVAVARRGEIVAQVGAAAELSDAQRTRLTEVLSRIYGHPVTVQLHIDAALLGGLSIAVGDEVIDGTLSSRLAAAEARLPDEGHHHHHH,not soluble
